Assay [1] deals with Hsp90 from Saccharomyces cerevisiae (Hsp82) with D61C, CpK at position 452 and a C-terminal coiled-coil motif, labelled with Atto 550 / Atto 647N and DNA oligonucleotide (Saccharomyces cerevisiae) (UniProt P02829). The experiment in a line: optical tweezers (single-molecule force spectroscopy); dye-labeled Hsp90 dimer tethered at position 452 by 2.5 kbp DNA handles; constant velocity 500 nm s^-1; 2 mM AMP-PNP, incubated 30 min at 21°C; 26 traces.

For assay [2] the target is unchanged. The assay is described as follows: optical tweezers (single-molecule force spectroscopy); dye-labeled Hsp90 dimer tethered at position 452 of both monomers between two beads by 2.5 kbp DNA handles; constant velocity 500 nm s^-1; no AMP-PNP; 147 unfolding traces.
The target is the same in assay [3]. The assay is described as follows: optical tweezers (single-molecule force spectroscopy); dye-labeled Hsp90 dimer tethered at position 452 of both monomers between two beads by 0.5 kbp DNA handles; constant velocity 500 nm s^-1; no nucleotide; 172 unfolding traces.

Regarding “Hsp90 from Saccharomyces cerevisiae (Hsp82) with D61C, CpK at position 452 and a C-terminal coiled-coil motif, labelled with Atto 550 / Atto 647N and DNA oligonucleotide (from UniProt P02829 1-709) (natural protein)”, the results for the dissociation force, C-terminal dimer dissociation in assay [1], in assay [2] and in assay [3] were 10.7 pN, 16.5 pN and 16.8 pN, respectively. Further, the force of N-terminal dimer opening in assay [1] was determined as 8.8 pN.
